The results in this text go back to the supplement of paper PMC7877785.

The nature of this data set: self-splicing fitness, log relative to wild type (ln ratio); higher = more splicing; Tetrahymena group I intron in knt gene, E. coli kanamycin selection, DiMSum; sequences stand for … in CUCUCU…GGAGGGAAAAGUUAUCAGGCAUGCACCUGGUAGCUAGUCUUUAAACCAAUAGAUUGCAUCGGUUUAAAAGGCAAGACCGUCAAAUUGCGGGAAAGGGGUCAACAGCCGUUCAGUACCAAGUCUCAGGGGAAACUUUGAGAUGGCCUUGCAAAGGGUAUGGUAAUAAGCUGACGGACAUGGUCCUAACCACGCAGCCAAGUCCUAAGUCAACAGAUCUUCUGUUGAUAUGGAUGCAGUUCACAGACUAAAUGUCGGUCGGGGAAGAUGUAUUCUUCUCAUAAGAUAUAGUCGGACCUCUCCUUAAUGGGAGCUAGCGGAUGAAGUGAUGCAACACUGGAGCCGCUGGGAACUAAUUUGUAUGCGAAAGUAUAUUGAUUAGUUUUGGAGUACUCGUGGUCG
In short, it runs like this: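 The eight P1ex-region nucleotides of an intron in the knt kanamycin-resistance gene on pET-22b(+) were all randomised and the library put into E. coli BL21(DE3). Six replicate transformations were grown overnight at 37°C or 30°C on LB agar with or without 25 μg/mL kanamycin, together with 100 μg/mL carbenicillin, 50 μM IPTG and 0.2% rhamnose. Colonies were pooled and amplicon-sequenced on an Illumina HiSeq 2500. Fitness from DiMSum is the error-weighted combination of wild-type-normalised replicate fold changes, kanamycin over none.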

± gives the uncertainty stated by the source.

On to CGGAAGCAAUAUUACGCUAC, for which the “self-splicing fitness (ln)” value runs as follows: (30 °C) -2.38 ± 0.24; (37 °C) -3.01 ± 0.47.
Take CGGAAGCAAUAUUACGCUAG: the “self-splicing fitness (ln)” value is, setting by setting: (30 °C) -1.05 ± 0.091; (37 °C) -1.6 ± 0.19.
In the same order, the values of CGGAAGCAAUAUUACGCUGG are -1.62 ± 0.11 and -1.15 ± 0.17.
In the case of CGGAAGCAAUAUUACGGAAG, the “self-splicing fitness (ln)” value (37 °C) is -1.5 ± 0.33.
In the case of CGGAAGCAAUAUUACGGAAU, the “self-splicing fitness (ln)” value was -2.11 ± 0.16 (30 °C) and -1.08 ± 0.19 (37 °C).
As for CGGAAGCAAUAUUACGGAUC, the “self-splicing fitness (ln)” value (30 °C) was -3.97 ± 0.37 and the “self-splicing fitness (ln)” value (37 °C) was -2.04 ± 0.27.
As for CGGAAGCAAUAUUACGGCAC, the “self-splicing fitness (ln)” value by setting is: (30 °C) -2.4 ± 0.25; (37 °C) -1.75 ± 0.38.
On to CGGAAGCAAUAUUACGGCCA, for which the “self-splicing fitness (ln)” value was 0.0398 ± 0.097 (30 °C) and 0.672 ± 0.16 (37 °C).
Taken in the same sequence, the figures for CGGAAGCAAUAUUACGGUCC were -3.37 ± 0.27 and -0.831 ± 0.13.
Turning to CGGAAGCAAUAUUACGUGAU, the “self-splicing fitness (ln)” value was -3.44 ± 0.12 (30 °C) and -1.96 ± 0.12 (37 °C).
As for CGGAAGCAAUAUUACGUGUU, the “self-splicing fitness (ln)” value runs as follows: (30 °C) -3.75 ± 0.17; (37 °C) -2.43 ± 0.17.
Taken in the same sequence, the figures for CGGAAGCAAUAUUACGUUGA were -3.33 ± 0.16 and -2.65 ± 0.15.
As to CGGCAGCAAUAUUACGAAAG, the “self-splicing fitness (ln)” value is, setting by setting: (30 °C) -0.748 ± 0.1; (37 °C) -0.538 ± 0.12.
Turning to CGGCAGCAAUAUUACGAAGA, the “self-splicing fitness (ln)” value reads like this: (30 °C) -2.55 ± 0.17; (37 °C) -1.25 ± 0.18.
As to CGGCAGCAAUAUUACGACAC, the “self-splicing fitness (ln)” value was -3.52 ± 0.24 (30 °C) and -2.65 ± 0.21 (37 °C).
With CGGCAGCAAUAUUACGAGAA, the “self-splicing fitness (ln)” value by setting is: (30 °C) -3.01 ± 0.19; (37 °C) -2.32 ± 0.19.
Taken in the same sequence, the figures for CGGCAGCAAUAUUACGAGAG were -3.21 ± 0.23 and -1.44 ± 0.2.
In the case of CGGCAGCAAUAUUACGAGGG, the “self-splicing fitness (ln)” value (30 °C) is -2.39 ± 0.39 and the “self-splicing fitness (ln)” value (37 °C) is -2.15 ± 0.33.
Consider CGGCAGCAAUAUUACGAGUU, for which the “self-splicing fitness (ln)” value (30 °C) was -5.14 ± 0.41 and the “self-splicing fitness (ln)” value (37 °C) was -2.69 ± 0.29.
In the case of CGGCAGCAAUAUUACGCAUU, the “self-splicing fitness (ln)” value reads like this: (30 °C) -2.66 ± 0.15; (37 °C) -2.33 ± 0.14.
For the sequence CGGCAGCAAUAUUACGCCUA, the “self-splicing fitness (ln)” value (30 °C) was -0.162 ± 0.17 and the “self-splicing fitness (ln)” value (37 °C) is 0.427 ± 0.13.
Regarding CGGCAGCAAUAUUACGCGAU, the “self-splicing fitness (ln)” value by setting is: (30 °C) -2.36 ± 0.19; (37 °C) -1.4 ± 0.25.
For the sequence CGGCAGCAAUAUUACGCUAG, the “self-splicing fitness (ln)” value was -2.62 ± 0.17 (30 °C) and -1.34 ± 0.18 (37 °C).
Regarding CGGCAGCAAUAUUACGCUGG, the “self-splicing fitness (ln)” value by setting is: (30 °C) -3.32 ± 0.16; (37 °C) -2.23 ± 0.21.
With CGGCAGCAAUAUUACGGGGC, the “self-splicing fitness (ln)” value was -2.42 ± 0.18 (30 °C) and -2.69 ± 0.33 (37 °C).
In the same order, the values of CGGCAGCAAUAUUACGGGUG are -0.564 ± 0.046 and -0.449 ± 0.06.
CGGCAGCAAUAUUACGGUGU: the “self-splicing fitness (ln)” value by setting is: (30 °C) -4.04 ± 0.2; (37 °C) -2.55 ± 0.17.
Turning to CGGCAGCAAUAUUACGUAGU, the “self-splicing fitness (ln)” value (30 °C) is -3.77 ± 0.21 and the “self-splicing fitness (ln)” value (37 °C) was -0.852 ± 0.12.
In the case of CGGCAGCAAUAUUACGUAUA, the “self-splicing fitness (ln)” value is -3.35 ± 0.27 (30 °C) and -2.8 ± 0.23 (37 °C).
CGGCAGCAAUAUUACGUCCU: the “self-splicing fitness (ln)” value is, setting by setting: (30 °C) 0.101 ± 0.067; (37 °C) 0.44 ± 0.092.
On to CGGCAGCAAUAUUACGUCGG, for which the “self-splicing fitness (ln)” value reads like this: (30 °C) -1.42 ± 0.079; (37 °C) -0.417 ± 0.098.
In the case of CGGCAGCAAUAUUACGUGCC, the “self-splicing fitness (ln)” value (30 °C) was -2.66 ± 0.28.
As to CGGCAGCAAUAUUACGUGUG, the “self-splicing fitness (ln)” value (30 °C) is -1.09 ± 0.036 and the “self-splicing fitness (ln)” value (37 °C) is -0.654 ± 0.05.
As for CGGCAGCAAUAUUACGUGUU, the “self-splicing fitness (ln)” value reads like this: (30 °C) -3.41 ± 0.13; (37 °C) -1.95 ± 0.13.
On to CGGGAGCAAUAUUACGAGUU, for which the “self-splicing fitness (ln)” value by setting is: (30 °C) -3.12 ± 0.27; (37 °C) -2.59 ± 0.36.
Turning to CGGGAGCAAUAUUACGAUAG, for the setting “37 °C”, the “self-splicing fitness (ln)” value was -1.97 ± 0.37.
Turning to CGGGAGCAAUAUUACGAUCC, the “self-splicing fitness (ln)” value is -3.35 ± 0.21 (30 °C) and -1.68 ± 0.22 (37 °C).
CGGGAGCAAUAUUACGAUUU: the “self-splicing fitness (ln)” value runs as follows: (30 °C) -3.64 ± 0.33; (37 °C) -1.2 ± 0.24.
With CGGGAGCAAUAUUACGCCUG, the “self-splicing fitness (ln)” value (30 °C) was -2.39 ± 0.28.
